Biological target: T1, FBXW24‐EGFP‐Strep II protein, purified from Sf9 (mouse, UniProt E9PXM9 1-466)
T1 construct: FBXW24 (F-box and WD-40 domain protein 24), mouse, gene ID 382106; also called FBXW24‐StrepII; in vitro purified FBXW24; source: Sf9 (Bac-to-bac baculovirus), purified (Ni-NTA); not shown: EGFP, C-terminal, kept; Strep II, C-terminal, kept
T1 sequence (looked up): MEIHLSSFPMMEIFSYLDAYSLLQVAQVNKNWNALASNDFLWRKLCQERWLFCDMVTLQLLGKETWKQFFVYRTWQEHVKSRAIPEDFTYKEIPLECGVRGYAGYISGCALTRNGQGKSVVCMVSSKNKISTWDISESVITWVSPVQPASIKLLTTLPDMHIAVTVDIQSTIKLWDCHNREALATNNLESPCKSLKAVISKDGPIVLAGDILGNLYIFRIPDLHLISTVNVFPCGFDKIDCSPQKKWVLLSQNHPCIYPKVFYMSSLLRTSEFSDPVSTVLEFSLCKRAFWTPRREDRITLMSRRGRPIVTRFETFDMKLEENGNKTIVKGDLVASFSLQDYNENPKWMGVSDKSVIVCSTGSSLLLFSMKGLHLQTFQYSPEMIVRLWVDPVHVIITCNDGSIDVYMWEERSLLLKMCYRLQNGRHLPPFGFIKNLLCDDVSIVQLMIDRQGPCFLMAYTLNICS
Assay: co-IP; co-IP between in vitro purified proteins; 1 μg SYCP3‐Flag protein and/or FBXW24‐StrepII protein in each reaction
Details: both partners purified

B1: SYCP3‐TagRFP‐Flag protein, purified from Sf9 (natural protein, mouse, UniProt P70281 1-254, looked up)
chain: MLRGCGDSDSSPEPLSKHLKMVPGGRKHSGKSGKPPLVDQPKKAFDFEKDDKDLSGSEEDVADEKAPVIDKHGKKRSAGIIEDVGGEVQNMLEKFGADINKALLAKRKRIEMYTKASFKASNQKIEQIWKTQQEEIQKLNNEYSQQFMNVLQQWELDIQKFEEQGEKLSNLFRQQQKIFQQSRIVQSQRMFAMKQIHEQFIKSLEDVEKNNDNLFTGTQSELKKEMAMLQKKVMMETQQQEMANVRKSLQSMLF
notes: SYCP3, synaptonemal complex lateral element protein; The purified protein ran as several bands, and the upper bands carried ubiquitin; also called SYCP3‐Flag; in vitro purified SYCP3; source: Sf9 (Bac-to-bac baculovirus), purified (Ni-NTA); not shown: TagRFP, C-terminal, kept; Flag, C-terminal, kept
binding result: binds

— article PMC9299759, “FBXW24 controls female meiotic prophase progression by regulating SYCP3 ubiquitination” (Clinical and Translational Medicine, 2022)
